{"source": "patent US12479895B2", "about": "“C-terminal CDNF and MANF fragments, pharmaceutical compositions comprising same and uses thereof” (MyNeuroCure Oy, priority 2018, dated 2025)", "molecules": {"B1": {"name": "KYEKTLDLASVDLRKMRVAELKQILHSWGEECRACAEKTDYVNLIQELAPKYAATHPKTEL (peptide, listed as Homo sapiens)", "chain": "KYEKTLDLASVDLRKMRVAELKQILHSWGEECRACAEKTDYVNLIQELAPKYAATHPKTEL"}}, "key": {"dopamine neurons": {"tested_on": "dopamine neurons", "assay": "Survival of TH-positive dopamine neurons in dissociated midbrain floor cultures", "type": "cell-based, mouse", "conditions": "for survived neurons as % compared to neurons grown in the presence of GDNF: Table 3A (FIG. 15); for survived neurons as % compared to neurons grown in the presence of GDNF / protection of dopaminergic neurons in culture (result in words): 5 days; for Fold change of survived neurons compared to neurons grown without growth factors: data of Table 3 divided by values of no factor; for protection of dopaminergic neurons in culture (result in words): added to the culture medium, TH-positive neurons counted", "summary_of_the_method": "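Dissociated E13.5 NMRI mouse midbrain floor neurons grown five days in DMEM/F12 with N2, with polypeptides at a range of concentrations, GDNF (100 ng/ml), or nothing. TH-immunopositive neurons were counted by imaging. Values are a percentage of GDNF-maintained TH-positive neurons, as mean ± SEM from at least three independent cultures.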"}, "[1]": {"tested_on": "rat model of cerebral ischemia", "assay": "Distal occlusion of the middle cerebral artery as a model of cerebral stroke", "type": "in vivo", "experimental": "Male Sprague Dawley rats (weight 230-270 g, Envigo, Netherlands) were used for the experiments which were conducted according to the 3R principles of EU directive 2010/63/EU on the care and use of experimental animals, local laws and regulations, and were approved by the national Animal Experiment Board of Finland All experiments were performed in a blinded manner and the rats were assigned to different treatment groups randomly. Rats were anesthesized with chloral hydrate (0.4 g/kg, i.p). A cortical stroke was induced by occluding the distal middle cerebral artery (dMCA) together with a bilateral common carotid artery (CCA) occlusion for 60 min as described previously (Chen, et al., 1986). Briefly, the bilateral CCAs were identified and isolated through a ventral midline cervical incision. Rats were placed in stereotaxic apparatus and a craniotomy was made in the right hemisphere. The right (MCA) was ligated with a 10-0 suture and bilateral common carotids (CCA) were ligated with non-traumatic arterial clamps for 60 minutes. […]\nTo test the neuroprotective effect of subcutaneous C-CDNF, 50 μg of C-CDNF was given 30-50 min before dMCA occlusion and immediately after reperfusion in volume of 100 μl s.c. Phosphate-buffered saline (PBS) was used as vehicle control. […] The area of infarction in each slice was measured with a digital scanner and ImageJ software. […]"}, "[2]": {"conditions": "rat, in vivo, sc", "description": "CDNF, C-CDNF and C-MANF were iodinated with ^125I-Na using the lactoperoxidase method. The protein in question was dissolved in 30 μl of 0.25 M phosphate buffer, pH 7.5, and mixed with ^125I-Na (1 mCi/2.8 μl; 1 mCi=37 mBq; GE Healthcare). The reaction was started by adding lactoperoxidase 10 μl of 50 μg/ml and 0.05% H2O2. The mixture was incubated at room temperature for 20 min and the reaction was stopped by adding 3 volumes of 0.1 M phosphate buffer, pH 7.5, containing 0.1 M NaI, 0.42 M NaCl, and then 25 μl of 2.5% BSA was added. Free iodine and iodinated protein were separated by gel filtration on Sephadex G-25 columns (PM10; GE Healthcare). For column equilibrium and elution, 0.1 M phosphate buffer, pH 7.5, with 1% BSA was used. The iodinated growth factors were sometimes concentrated by using YM-10 Centricon columns (Millipore). The specific activity of ^125I-labeled CDNF, C-CDNF and C-MANF was measured on the Wizard 3 1480 Automatic Gamma Counter (Perkin Elmer, Wallac) and was about 10^8 cpm/μg protein. The labelled protein were kept at 4° C. and used within 3 weeks after labelling.\n^125I-CDNF, ^125I C-CDNF or ^125I C-MANF (all proteins at 10^6 cpm in 10 μl) were injected subcutaneously to adult male Wistar rats. […] Radioactivity was analyzed in different brain regions by gamma counter. […] The differences between groups were analyzed ANOVA followed by Tukey-Kramers post hoc test."}}}
{"molecule": "B1", "values": [{"measurement": "survived neurons as % compared to neurons grown in the presence of GDNF", "setting": "dopamine neurons; AVG, 1 ng/ml", "value": 63.97, "unit": "% GDNF"}, {"measurement": "survived neurons as % compared to neurons grown in the presence of GDNF", "setting": "dopamine neurons; AVG, 10 ng/ml", "value": 80.69, "unit": "% GDNF"}, {"measurement": "survived neurons as % compared to neurons grown in the presence of GDNF", "setting": "dopamine neurons; AVG, 100 ng/ml", "value": 77.02, "unit": "% GDNF"}, {"measurement": "survived neurons as % compared to neurons grown in the presence of GDNF", "setting": "dopamine neurons; AVG, 1000 ng/ml", "value": 70.02, "unit": "% GDNF"}, {"measurement": "survived neurons as % compared to neurons grown in the presence of GDNF", "setting": "dopamine neurons; exp1, 1 ng/ml", "value": 62.96, "unit": "% GDNF"}, {"measurement": "survived neurons as % compared to neurons grown in the presence of GDNF", "setting": "dopamine neurons; exp1, 10 ng/ml", "value": 81.68, "unit": "% GDNF"}, {"measurement": "survived neurons as % compared to neurons grown in the presence of GDNF", "setting": "dopamine neurons; exp1, 100 ng/ml", "value": 91.48, "unit": "% GDNF"}, {"measurement": "survived neurons as % compared to neurons grown in the presence of GDNF", "setting": "dopamine neurons; exp1, 1000 ng/ml", "value": 75.02, "unit": "% GDNF"}, {"measurement": "survived neurons as % compared to neurons grown in the presence of GDNF", "setting": "dopamine neurons; exp2, 1 ng/ml", "value": 67.36, "unit": "% GDNF"}, {"measurement": "survived neurons as % compared to neurons grown in the presence of GDNF", "setting": "dopamine neurons; exp2, 10 ng/ml", "value": 80.97, "unit": "% GDNF"}, {"measurement": "survived neurons as % compared to neurons grown in the presence of GDNF", "setting": "dopamine neurons; exp2, 100 ng/ml", "value": 65.28, "unit": "% GDNF"}, {"measurement": "survived neurons as % compared to neurons grown in the presence of GDNF", "setting": "dopamine neurons; exp2, 1000 ng/ml", "value": 61.07, "unit": "% GDNF"}, {"measurement": "survived neurons as % compared to neurons grown in the presence of GDNF", "setting": "dopamine neurons; exp3, 1 ng/ml", "value": 61.59, "unit": "% GDNF"}, {"measurement": "survived neurons as % compared to neurons grown in the presence of GDNF", "setting": "dopamine neurons; exp3, 10 ng/ml", "value": 79.42, "unit": "% GDNF"}, {"measurement": "survived neurons as % compared to neurons grown in the presence of GDNF", "setting": "dopamine neurons; exp3, 100 ng/ml", "value": 74.30, "unit": "% GDNF"}, {"measurement": "survived neurons as % compared to neurons grown in the presence of GDNF", "setting": "dopamine neurons; exp3, 1000 ng/ml", "value": 73.98, "unit": "% GDNF"}, {"measurement": "Fold change of survived neurons compared to neurons grown without growth factors", "setting": "dopamine neurons; Table 4, AVG, 1 ng/ml", "value": 1.04, "unit": "fold"}, {"measurement": "Fold change of survived neurons compared to neurons grown without growth factors", "setting": "dopamine neurons; Table 4, AVG, 10 ng/ml", "value": 1.31, "unit": "fold"}, {"measurement": "Fold change of survived neurons compared to neurons grown without growth factors", "setting": "dopamine neurons; Table 4, AVG, 100 ng/ml", "value": 1.26, "unit": "fold"}, {"measurement": "Fold change of survived neurons compared to neurons grown without growth factors", "setting": "dopamine neurons; Table 4, AVG, 1000 ng/ml", "value": 1.14, "unit": "fold"}, {"measurement": "Fold change of survived neurons compared to neurons grown without growth factors", "setting": "dopamine neurons; Table 4, exp1, 1 ng/ml", "value": 1.10, "unit": "fold"}, {"measurement": "Fold change of survived neurons compared to neurons grown without growth factors", "setting": "dopamine neurons; Table 4, exp1, 10 ng/ml", "value": 1.43, "unit": "fold"}, {"measurement": "Fold change of survived neurons compared to neurons grown without growth factors", "setting": "dopamine neurons; Table 4, exp1, 100 ng/ml", "value": 1.60, "unit": "fold"}, {"measurement": "Fold change of survived neurons compared to neurons grown without growth factors", "setting": "dopamine neurons; Table 4, exp1, 1000 ng/ml", "value": 1.31, "unit": "fold"}, {"measurement": "Fold change of survived neurons compared to neurons grown without growth factors", "setting": "dopamine neurons; Table 4, exp2, 1 ng/ml", "value": 1.07, "unit": "fold"}, {"measurement": "Fold change of survived neurons compared to neurons grown without growth factors", "setting": "dopamine neurons; Table 4, exp2, 10 ng/ml", "value": 1.28, "unit": "fold"}, {"measurement": "Fold change of survived neurons compared to neurons grown without growth factors", "setting": "dopamine neurons; Table 4, exp2, 100 ng/ml", "value": 1.04, "unit": "fold"}, {"measurement": "Fold change of survived neurons compared to neurons grown without growth factors", "setting": "dopamine neurons; Table 4, exp2, 1000 ng/ml", "value": 0.97, "unit": "fold"}, {"measurement": "Fold change of survived neurons compared to neurons grown without growth factors", "setting": "dopamine neurons; Table 4, exp3, 1 ng/ml", "value": 0.95, "unit": "fold"}, {"measurement": "Fold change of survived neurons compared to neurons grown without growth factors", "setting": "dopamine neurons; Table 4, exp3, 10 ng/ml", "value": 1.23, "unit": "fold"}, {"measurement": "Fold change of survived neurons compared to neurons grown without growth factors", "setting": "dopamine neurons; Table 4, exp3, 100 ng/ml", "value": 1.15, "unit": "fold"}, {"measurement": "Fold change of survived neurons compared to neurons grown without growth factors", "setting": "dopamine neurons; Table 4, exp3, 1000 ng/ml", "value": 1.14, "unit": "fold"}, {"measurement": "protection of dopaminergic neurons in culture (result in words)", "setting": "dopamine neurons", "value": "protects"}, {"measurement": "protection of dopaminergic neurons in culture (result in words)", "setting": "dopamine neurons; listed as C-terminal CDNF fragment", "value": "potently protected"}, {"measurement": "infarction volume (rostral part of the cerebral cortex)", "setting": "[1]; 50 μg s.c. 30-50 minutes before dMCA occlusion and right after reperfusion, p<0.05 vs PBS", "value": "decreases"}, {"measurement": "smaller lesions than the vehicle treated rats", "setting": "[1]; 50 μg s.c. before dMCA occlusion and right after reperfusion, n=8-9", "value": "about 50%"}, {"measurement": "blood-brain-barrier penetration", "setting": "[2]", "value": "capable of penetrating"}]}
